Laboratory results published in the Human Domainome abundance scans (Beltran et al. 2025).

B1: Serine/threonine-protein kinase A-Raf, residues 21 to 89; numbered along this chain, P10398 (parent)
chain: VKVYLPNKQRTVVTVRDGMSVYDSLDKALKVRGLNQDCCVVYRLIKGRKTVTAWDTAIAPLDGEELIVE

Variants of: B1
Assay: abundance fitness (aPCA) (normalised: wild type 0, dead -1); higher = more abundant; growth selection in yeast, the domain comes from the species named
Settings: Homo sapiens

Abundance fitness, by site and new letter:
S20: G -0.94, L -0.91, N -0.122, M -0.832, Y -0.623, P -0.728, C -0.31, R -0.352, A -0.808, F -0.844, D -0.296, T 0, Q -0.799, E -0.913, V -0.876, W -0.847
D23: P -0.931, Y -0.825, G -0.388, L -0.493, H -0.345, N -0.294, F -0.056, K -0.106, V -0.389, M -0.301, A -0.201, T -0.087, Q 0.118, E 0.085, S -0.145, C -0.908, W -0.338, R -0.283
V12: E -0.066, K -0.111, G -0.983, R -0.096, C -0.304, I -0.117, D -0.341, L -0.189, M -0.264, Q -0.18, H -0.115, T -0.096, P -0.748, W -0.067, Y 0.019, F -0.254, A -0.503, N -0.325
R10: Y 0.051, L -0.059, S 0.177, A -0.15, N 0.042, D -0.281, M 0.139, C 0.025, Q 0.036, T 0.111, H 0.041, K -0.002, V 0.187, G -0.158, W 0.067, I 0.258, E 0.118, F 0.147, P -0.318
L25: C -0.427, S -0.891, D -0.717, V -0.54, A -0.919, T -0.978, F -0.903, I -0.573, R -0.924, W -0.971, E -0.944, G -0.697, K -0.542, Q -0.961, H -1.06
V15: I -0.088, G -0.17, W -0.093, C 0, T -0.147, M -0.234, N -0.408, F -0.001, S -0.179, R -0.822, P -0.257, D -0.33, K -0.797, H -0.122, L -0.105, A -0.017, Q -0.686
Y22: A 0.056, C -0.176, P -0.95, S 0.094, V -0.321, W -0.069, G 0.105, T -0.383, E -0.144, R 0.11, L -0.04, Q 0.041, N -0.346, D -0.83, K 0.012, M -0.142, H 0.024
T14: F -0.01, M -0.113, C -0.251, L -0.172, H -0.213, Q 0.034, E -0.138, K -0.008, Y -0.415, S -0.156, V -0.126, N -0.097, W -0.098, A -0.078, G -0.295, P -0.005, D -0.205
G18: A -0.513, V -0.663, D -0.143, K -0.08, P -0.659, S -0.239, Y -0.638, H -0.244, E -0.25, R -0.373, W -0.636, M -0.89, Q -0.305, T -0.405, F -0.651, I -0.882, C -0.261
S24: F -0.349, Q -0.411, H -0.949, Y -0.487, C 0.11, G 0.149, V 0.031, T -0.025, I 0.027, K -0.912, W -0.35, A 0.174, D -0.887
